Measurements reported in US20230390340A1.

Target: ApoE dependent receptors (on bEND.3 mouse endothelial cells) (mouse)
Assay: cell-based or functional assay

uptake of IDS.ApoEII into bEND.3 cells after 24 hours, following blocking with human recombinant ApoE: 30%
Substance: IDS.ApoEII (human iduronate-2-sulfatase with C-terminal invariant flexible linker and ApoE receptor-binding tandem repeat) (from UniProt P22304 26-550) (enzyme)
